Like-named read-outs stand apart in the source and are kept apart here.
T1: recombinant human IL-7Rα-His6-Fc (human, UniProt P16871 21-239)
T1 construct: also called hIL-7R; not shown: His6 tag; Fc (captured by anti-human IgG Fc)
T1 chain: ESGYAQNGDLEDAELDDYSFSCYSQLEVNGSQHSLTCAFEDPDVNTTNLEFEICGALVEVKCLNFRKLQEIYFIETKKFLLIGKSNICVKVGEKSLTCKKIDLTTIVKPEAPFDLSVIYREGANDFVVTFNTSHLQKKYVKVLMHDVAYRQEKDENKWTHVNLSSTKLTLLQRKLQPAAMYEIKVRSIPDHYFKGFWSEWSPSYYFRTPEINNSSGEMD

T2: human IL-7Rα (human, UniProt P16871 21-239)
T2 chain: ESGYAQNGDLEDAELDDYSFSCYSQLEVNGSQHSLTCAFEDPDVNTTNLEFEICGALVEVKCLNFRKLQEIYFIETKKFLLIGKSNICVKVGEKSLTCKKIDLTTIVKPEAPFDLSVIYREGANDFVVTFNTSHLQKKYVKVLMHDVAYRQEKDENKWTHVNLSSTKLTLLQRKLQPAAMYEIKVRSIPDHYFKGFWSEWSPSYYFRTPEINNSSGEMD

T3: cynomolgus monkey IL-7Rα (cynomolgus monkey, UniProt Q38IC7 21-239, limits assumed)
T3 construct: also called cynomolgus IL-7Rα
T3 sequence: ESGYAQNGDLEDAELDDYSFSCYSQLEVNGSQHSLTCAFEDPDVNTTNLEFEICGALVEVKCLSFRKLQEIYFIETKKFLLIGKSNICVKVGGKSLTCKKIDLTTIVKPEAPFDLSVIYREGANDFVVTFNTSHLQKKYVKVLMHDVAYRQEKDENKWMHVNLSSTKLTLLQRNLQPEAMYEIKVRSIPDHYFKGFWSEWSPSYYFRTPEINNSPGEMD


Legend:
[1] = target: T1, recombinant human IL-7Rα-His6-Fc; assay: IL-7/IL-7Rα-His6-Fc ELISA; inhibition of IL-7 binding to IL-7R
[2] = target: T1, recombinant human IL-7Rα-His6-Fc; assay: IL-7/IL-7R neutralisation ELISA; inhibition of IL-7 binding to IL-7R
[3] = target: T2, human IL-7Rα; assay: cell-based or functional assay
[4] = target: T2, human IL-7Rα; assay: cell-based or functional assay
[5] = target: T1, recombinant human IL-7Rα-His6-Fc; assay: TSLP/TSLPR/IL-7R ELISA; inhibition of L-TSLP/TSLP-R complex binding to plate-coated IL-7Rα-His6-Fc
Method: (§1) 96-well plates were coated with 0.25 μg/mL recombinant human IL-7Rα-His₆-Fc+ 5 μg/mL BSA and then blocked. […] Then the mixtures were incubated for 30 minutes to allow binding before adding to the IL-7Rα coated plates.

[6] = target: T1, recombinant human IL-7Rα-His6-Fc; assay: IL-7/IL-7R neutralisation ELISA; inhibition of IL-7 binding to IL-7R
Method: A 7-point dilution series of the clones was prepared in 1% BSA (at 2× the assay concentration) starting at 300 nM and using a 3.2 dilution factor. […] Block buffer alone was also added to each plate as blank. […] TMB reaction was stopped after 30 minutes. […]

[7] = target: T1, recombinant human IL-7Rα-His6-Fc; assay: IL-7/IL-7R neutralising ELISA; inhibition of IL-7 binding to IL-7R
Method: (§2) A 7-point dilution series of the clones was prepared in 1% BSA (at 2× the assay concentration) starting at 300 nM and using a 3.2 dilution factor. […] Block buffer alone was also added to each plate as blank. […] TMB reaction was stopped after 30 minutes.
EC₅₀ values were generated in Graphpad prism using the ELISA signal blank corrected A450 data and ‘log(inhibitor) vs. response—Variable slope (four parameters)’ to fit curves and generate EC₅₀.

[8] = target: T1, recombinant human IL-7Rα-His6-Fc; assay: as above
Method: as §2

[9] = target: T3, cynomolgus monkey IL-7Rα; assay: competition ELISA: A62U premixed with serially diluted soluble IL-7R, then added to plate-coated human IL-7Rα-His6-Fc; bound ICVD detected [right panel (cross-reactivity A62U]
Method: 96-well plates were coated with 0.5 μg/mL recombinant human IL-7Rα His₆-Fc +5 μg/mL BSA and then blocked. 0.5 nM of ICVD was mixed 1:1 with the test compounds of choice serially diluted in 1% BSA, then incubated for 30 minutes to allow binding before adding to the IL-7Rα coated plates. Following 2 hours incubation, bound ICVD was detected with 50 uL/well 1/20000 anti-FLAG-HRP Goat antibody (GeneTex, GTX21238), and the level of neutralisation of ICVD-IL-7Rα binding by the test compounds was determined.

[10] = target: T1, recombinant human IL-7Rα-His6-Fc; assay: TSLP/TSLPR/IL-7R ELISA; inhibition of L-TSLP/TSLP-R complex binding to plate-coated IL-7Rα-His6-Fc
Method: as §1
A subtraction was performed on the data set before graphing which normalised to the highest concentration of antibody tested (to overcome a high level of background on the plate).

[11] = target: T1, recombinant human IL-7Rα-His6-Fc; assay: IL-7/IL-7R neutralisation ELISA; inhibition of IL-7 binding to IL-7R

| Binder | EC50 [1] | EC50 [2] | IL-7 induced pSTAT5 in hPBMCs EC50 [3] | IL-7 induced pSTAT5 in hPBMCs EC50 [4] | EC50 [5] | EC50 [6] | EC50 [7] | EC50 [8] | binding result [9] | EC50 [10] | EC50 [11] |
| --- | --- | --- | --- | --- | --- | --- | --- | --- | --- | --- | --- |
| V7R-2E9 (VHH, llama ICVD, primary clone, expressed in E. coli TG1; parent of the ID-A series; not shown: C-terminal FLAG and 6xHis tags from vector pMEK222) VHH: EVQLVESGGGLVQAGGSLRLSCESSISTFSSDAMGWFRQAPGKEREFLAAIGWSGAVTHYSDSVQGRFTISRDNAKNTVYLQMNSLKSEDTGRYYCAEDYDTDVWQYWGQGTQVTVSS | 0.6 nM | 0.818 nM | 2.86 nM | 2.86 nM | 0.32 nM | 0.37 to 0.67 nM | 0.368 nM | 0.818 nM |  |  |  |
| ID-A62U (VHH, V7R-2E9 with E1D, R45L, Q65K, K87R, S88A; produced in S. cerevisiae) VHH: DVQLVESGGGLVQAGGSLRLSCESSISTFSSDAMGWFRQAPGKELEFLAAIGWSGAVTHYSDSVKGRFTISRDNAKNTVYLQMNSLRAEDTGRYYCAEDYDTDVWQYWGQGTQVTVSS |  |  |  |  |  |  |  |  | binds | 0.74 nM | 0.4 nM |

Reference: patent publication US20220363769A1 (SORRISO PHARMACEUTICALS, published 2022)
